Data on 15 molecules can be found in US20220243360A1 (ROCHE SEQUENCING SOLUTIONS, published 2022).

No end group written: not given here.

For assay [1], the target named is T1, biotin-labeled DsbA (UniProt P0AEG4 20-208, limits assumed, biotin-labeled).
T1 sequence (looked up): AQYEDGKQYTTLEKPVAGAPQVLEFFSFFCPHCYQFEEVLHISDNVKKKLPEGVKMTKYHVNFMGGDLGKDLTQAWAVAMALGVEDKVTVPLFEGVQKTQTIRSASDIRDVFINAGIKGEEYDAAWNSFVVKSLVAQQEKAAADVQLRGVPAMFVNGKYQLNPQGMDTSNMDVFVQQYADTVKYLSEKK
The assay can be described thus: peptide microarray fluorescence (Cy5), peptide on the array, biotin-DsbA in solution.

The target in assay [2] is T1, biotin-labeled DsbA. The assay can be described thus: SPR, Biacore X100, biotin-DsbA on streptavidin chip, peptide as analyte. (In SPR one partner is held on a chip, and binding of the other changes the refractive index at the surface.)
Procedure: Kinetic analysis of the interaction between the discovered peptides and DsbA was performed using a Biacore XI00. Biotin-labeled DsbA (1 uM) was immobilized on streptavidin coated chip (GE Healthcare) to a target level of 1,000 response units in HBS-P+. […] Fourteen dilutions of peptide from 5000 nM to 0.6 nM in HBS-P+were flowed over the DsbA coated chip in triplicate with a contact time of 120 seconds and a dissociation time of 600 seconds. […] All peptides were amidated on the C-terminus.
Assay [3] concerns the target T1, biotin-labeled DsbA. As to the kind of experiment: Biacore X100 per the table title, biotin-DsbA on streptavidin chip; paragraph 121 says Biacore or ITC (Duprez 2015).

In the case of WQYENWAITKWQCVK-NH2 [WQYENWAITKWQCVK-NH2], the “SIGNAL INTENSITY” value in assay [1] came to 1430. In addition, in assay [2], the Kd (as a rule, the concentration at which binding is half-saturated) was determined as 83 nM. YVYGMCWKDYTDTDK-NH2 [YVYGMCWKDYTDTDK-NH2]: in assay [1], the “SIGNAL INTENSITY” value stood at 2110. Besides, the Kd in assay [2] came to 116 nM.

Take VIVGQCLKK-NH2 [VIVGQCLKK-NH2]: the “SIGNAL INTENSITY” value in assay [1] was 282. In assay [2], binding was put at a Kd of 622 nM. Consider SIIGQCYKKDPSQAT-NH2 [SIIGQCYKKDPSQAT-NH2], for which the Kd in assay [2] came to 553 nM. With HNWAAQCLKDQAKL-NH2 [HNWAAQCLKDQAKL-NH2], in assay [1], the “SIGNAL INTENSITY” value came to 1760. For the same molecule, the Kd in assay [2] was found to be 88 nM. As for NDYQYKGQQCLDPKY-NH2 [NDYQYKGQQCLDPKY-NH2], in assay [1], the “SIGNAL INTENSITY” value amounted to 3620. Further, the Kd in assay [2] stood at 48 nM. In the same order, the values of YVYGMCWKDYTTDK-NH2 [YVYGMCWKDYTTDK-NH2] are 2300 and 78 nM. For DFWHGETCKVTQFDQ-NH2 [DFWHGETCKVTQFDQ-NH2], the “SIGNAL INTENSITY” value in assay [1] came to 1800. This molecule also gave a Kd in assay [2] of 84 nM. Turning to DFWHGEQCKVTQFDQ-NH2 [DFWHGEQCKVTQFDQ-NH2], in assay [1], the “SIGNAL INTENSITY” value is 4590. For the same molecule, binding in assay [2] was put at a Kd of 53 nM. The matching figures for DFWHGDTCKVTQFDQ-NH2 [DsbA_1_WT]: 1750 and 208 nM. In the same order, the values of VILGQCLKQ-NH2 [VILGQCLKQ-NH2] are 965 and 517 nM. In the same order, the values of VIGQCLKN-NH2 [VIGQCLKN-NH2] are 588 and 623 nM.

As to SIIGMCYKKDPS-NH2 [SIIGMCYKKDPS-NH2], the “SIGNAL INTENSITY” value in assay [1] amounted to 1360. In assay [2], binding was characterised by a dissociation constant (Kd) of 188 nM. PSPWATCDF-NH2 [PSPWATCDF-NH2]: binding in assay [3] was characterised by a dissociation constant (Kd) of 2900 nM. Moreover, in assay [1], the “SIGNAL INTENSITY” value came out at 82.

As for HNWAAQCLNPDQAKL-NH2 [HNWAAQCLNPDQAKL-NH2], in assay [1], the “SIGNAL INTENSITY” value amounted to 2640. This molecule gave a Kd in assay [2] of 57 nM.
